This is an account of results in the supplement of paper PMC10567573.

This data set can be described thus: protein stability index of a GFP-peptide fusion (GPS, HEK-293T) (PSI 1-6); higher = more stable. The following applies: c terminus: a fixed tail appended.

± gives the standard deviation.
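Further: 24-mer peptide tiles fused after GFP, lentivirally expressed, FACS-sorted into six equal bins by GFP/DsRed ratio, decoded by Illumina sequencing, PSI is the read-weighted mean bin number.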

With ETAVEGDPSGVSGATVGRKSRRSR [C18orf25], the protein stability index runs as follows: (treatment: DMSO) 5.484 ± 0.04; (treatment: MLN4924 1 uM, 8 h) 5.5 ± 0.25.

In the case of AWNSPFYNCGEESLQSCMHFQPNS [NANOGP8], the protein stability index (treatment: DMSO) was 2.41 ± 0.13 and the protein stability index (treatment: MLN4924 1 uM, 8 h) was determined as 2.43 ± 0.41.

For the sequence KSIGSEPHEDHVFLVANFSQIETL [MATN2], the protein stability index was determined as 2.92 ± 0.47 (treatment: DMSO) and 2.8 ± 0.25 (treatment: MLN4924 1 uM, 8 h).

LPQPLAAHAGAVHNGKIYISGGVH [KLHL14]: the protein stability index by setting is: (treatment: DMSO) 3.17 ± 0.24; (treatment: MLN4924 1 uM, 8 h) 3.27 ± 0.3.

Consider LTEQVWKVQDALQNQSDSLLALAG [SCARA5], for which the protein stability index reads like this: (treatment: DMSO) 3.65 ± 0.16; (treatment: MLN4924 1 uM, 8 h) 3.82 ± 0.37.

SIIHQMEKFSSSLHELSSRVEASH [FBF1]: the protein stability index reads like this: (treatment: DMSO) 2.72 ± 0.21; (treatment: MLN4924 1 uM, 8 h) 2.96 ± 0.2.

In the case of IRDLDVVVVSVAGAFRKGKSFILD [ATL3], the protein stability index runs as follows: (treatment: DMSO) 2.3 ± 0.64; (treatment: MLN4924 1 uM, 8 h) 2.34 ± 0.45.

On to AEQRGDNALKDARAKLDELEGALH [KRT71], for which the protein stability index reads like this: (treatment: DMSO) 5.16 ± 0.2; (treatment: MLN4924 1 uM, 8 h) 5.37 ± 0.29.

For the sequence DLEDPLGGLLSYDEGGITKQPPVT [FBF1], the protein stability index by setting is: (treatment: DMSO) 4.41 ± 0.28; (treatment: MLN4924 1 uM, 8 h) 4.35 ± 0.43.

Consider VCYHYYADWFMSLGVGLLTFASLE [TMEM40], for which the protein stability index reads like this: (treatment: DMSO) 3.04 ± 0.18; (treatment: MLN4924 1 uM, 8 h) 3.08 ± 0.18.

Sequence ALCLEVRPTYFEMKNEKLLSKASE [RNF180] displayed a protein stability index (treatment: DMSO) of 3.51 ± 0.21 and a protein stability index (treatment: MLN4924 1 uM, 8 h) of 3.67 ± 0.4.

For the sequence AQSLPGPCAAAREGRLERRECGLA [IRX6], the protein stability index by setting is: (treatment: DMSO) 4.42 ± 0.2; (treatment: MLN4924 1 uM, 8 h) 4.53 ± 0.38.

As to IMNIEPAILVMHHSMKPHPAITAT [INTS3], the protein stability index is 2.24 ± 0.38 (treatment: DMSO) and 2.22 ± 0.16 (treatment: MLN4924 1 uM, 8 h).

With GSLEKALPIIQSNQVSSNSWGIAG [DLC1], the protein stability index runs as follows: (treatment: DMSO) 3.35 ± 0.3; (treatment: MLN4924 1 uM, 8 h) 3.6 ± 0.2.

Take EFPYRMNHILECEFYLLELMDCCL [CCNC]: the protein stability index was 2.68 ± 0.31 (treatment: DMSO) and 2.84 ± 0.6 (treatment: MLN4924 1 uM, 8 h).

As to DGRSLSKLNLCEDGPCHKRRASIC [SCARA5], the protein stability index runs as follows: (treatment: DMSO) 3.88 ± 0.33; (treatment: MLN4924 1 uM, 8 h) 3.93 ± 0.3.

For the sequence AKGWGPCYSRQFITSCPCWLEILL [SMAD6], the protein stability index reads like this: (treatment: DMSO) 2.69 ± 0.29; (treatment: MLN4924 1 uM, 8 h) 2.8 ± 0.42.

For the sequence TLSFNMSDKYPIQDTELPKAEECD [EDARADD], the protein stability index by setting is: (treatment: DMSO) 4.55 ± 0.39; (treatment: MLN4924 1 uM, 8 h) 4.36 ± 0.31.

KSSSSSSSSSSSSSSSSSSSSSGP [TMEM40] registered a protein stability index (treatment: DMSO) of 5.29 ± 0.15 and a protein stability index (treatment: MLN4924 1 uM, 8 h) of 5.3 ± 0.1.

For the sequence RVPQTWSKRLYGVYDNEKKLQLQL [PLD5], the protein stability index is, setting by setting: (treatment: DMSO) 2.39 ± 0.32; (treatment: MLN4924 1 uM, 8 h) 2.31 ± 0.28.

As to ETLPELKDDKDFTGTVHRIDNTTV [KCNA1], the protein stability index is, setting by setting: (treatment: DMSO) 5.12 ± 0.24; (treatment: MLN4924 1 uM, 8 h) 5.17 ± 0.072.

Regarding YNSPQFKKTMSTFHNLVSLNLNYN [FBXO39], the protein stability index was 2.25 ± 0.32 (treatment: DMSO) and 2.12 ± 0.4 (treatment: MLN4924 1 uM, 8 h).

For DHSQRICEVWACNLDEEMKKIRQV [CNOT7], the protein stability index came out at 3.43 ± 0.2 (treatment: DMSO) and 3.7 ± 0.18 (treatment: MLN4924 1 uM, 8 h).

On to GPGGRRAGEPGHSPADYLRFQDLV [DYRK1B], for which the protein stability index reads like this: (treatment: DMSO) 3.07 ± 0.35; (treatment: MLN4924 1 uM, 8 h) 3.27 ± 0.6.

KTVDKHSDEYKIRRERNNIAVRKS [CEBPB]: the protein stability index is 4.59 ± 0.17 (treatment: DMSO) and 4.79 ± 0.39 (treatment: MLN4924 1 uM, 8 h).

With LQSISWDPEDFEDAWKRPDALPGQ [TLE6], the protein stability index is 3.98 ± 0.29 (treatment: DMSO) and 3.87 ± 0.43 (treatment: MLN4924 1 uM, 8 h).

As for QFALTNGDPLNCHSYLSGYISLLL [NR2F2], the protein stability index reads like this: (treatment: DMSO) 2.57 ± 0.57; (treatment: MLN4924 1 uM, 8 h) 2.28 ± 0.3.

Sequence CIYSEVMEALDLQPGLSFLNLGSG [PCMTD2] registered a protein stability index (treatment: DMSO) of 2.29 ± 0.34 and a protein stability index (treatment: MLN4924 1 uM, 8 h) of 2.33 ± 0.44.

On to ICYLPHWMMQNLLLEEGGLVQVES [UFD1], for which the protein stability index was 2.65 ± 0.34 (treatment: DMSO) and 2.7 ± 0.5 (treatment: MLN4924 1 uM, 8 h).
